Experiments:
c-Src SH2 = test: SH2 binding enrichment of the phosphorylated peptide, bacterial display (enrichment ratio); higher = better substrate or ligand; peptides without Tyr show the background
Grb2 SH2 = Grb2 SH2 (UniProt P62993); test: as above
SHP2-C SH2 = test: as above
EPHB1 = EPHB1 (UniProt P54762); test: phosphorylation enrichment, bacterial display (enrichment ratio); higher = better substrate or ligand; peptides without Tyr show the background
Fyn = Fyn (UniProt P06241); test: as above
Fyn, sequence (P06241 whole entry, looked up): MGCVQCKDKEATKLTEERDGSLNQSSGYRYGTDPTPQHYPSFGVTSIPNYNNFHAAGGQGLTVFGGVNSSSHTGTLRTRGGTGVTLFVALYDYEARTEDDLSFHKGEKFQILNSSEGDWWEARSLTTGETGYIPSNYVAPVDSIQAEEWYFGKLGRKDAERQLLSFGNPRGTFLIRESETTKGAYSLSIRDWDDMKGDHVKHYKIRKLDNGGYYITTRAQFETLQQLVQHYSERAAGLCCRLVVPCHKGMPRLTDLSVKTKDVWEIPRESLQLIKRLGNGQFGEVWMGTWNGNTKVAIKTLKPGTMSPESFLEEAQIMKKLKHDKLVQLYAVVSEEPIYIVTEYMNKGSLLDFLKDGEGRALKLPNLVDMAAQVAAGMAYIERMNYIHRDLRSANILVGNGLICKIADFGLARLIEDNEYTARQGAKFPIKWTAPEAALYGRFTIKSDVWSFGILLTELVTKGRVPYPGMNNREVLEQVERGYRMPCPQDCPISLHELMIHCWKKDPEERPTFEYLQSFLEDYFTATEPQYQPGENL

FGFR1 = FGFR1 (UniProt P11362); test: as above
AncSZ = test: as above
c-Src = test: as above
Jak2 = Jak2 (UniProt O60674); test: as above
Hck = Hck (UniProt P08631); test: as above
Hck, sequence (P08631 whole entry, looked up): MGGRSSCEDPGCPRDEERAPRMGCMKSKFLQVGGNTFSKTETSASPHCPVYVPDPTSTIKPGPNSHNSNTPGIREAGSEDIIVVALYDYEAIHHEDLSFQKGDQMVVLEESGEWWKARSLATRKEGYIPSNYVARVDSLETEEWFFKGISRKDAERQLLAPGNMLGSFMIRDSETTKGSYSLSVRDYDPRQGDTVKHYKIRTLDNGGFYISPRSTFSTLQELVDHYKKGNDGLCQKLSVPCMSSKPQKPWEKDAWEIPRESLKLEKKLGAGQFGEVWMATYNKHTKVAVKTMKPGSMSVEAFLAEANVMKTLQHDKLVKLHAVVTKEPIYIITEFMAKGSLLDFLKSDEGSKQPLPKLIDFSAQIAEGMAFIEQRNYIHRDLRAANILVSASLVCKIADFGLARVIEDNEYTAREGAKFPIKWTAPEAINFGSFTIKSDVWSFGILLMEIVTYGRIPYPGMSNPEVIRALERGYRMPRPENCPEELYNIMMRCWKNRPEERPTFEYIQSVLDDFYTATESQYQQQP

EPHB2 = EPHB2 (UniProt P29323); test: as above
Fes = Fes (UniProt P07332); test: as above
Fes, sequence (P07332 whole entry, looked up): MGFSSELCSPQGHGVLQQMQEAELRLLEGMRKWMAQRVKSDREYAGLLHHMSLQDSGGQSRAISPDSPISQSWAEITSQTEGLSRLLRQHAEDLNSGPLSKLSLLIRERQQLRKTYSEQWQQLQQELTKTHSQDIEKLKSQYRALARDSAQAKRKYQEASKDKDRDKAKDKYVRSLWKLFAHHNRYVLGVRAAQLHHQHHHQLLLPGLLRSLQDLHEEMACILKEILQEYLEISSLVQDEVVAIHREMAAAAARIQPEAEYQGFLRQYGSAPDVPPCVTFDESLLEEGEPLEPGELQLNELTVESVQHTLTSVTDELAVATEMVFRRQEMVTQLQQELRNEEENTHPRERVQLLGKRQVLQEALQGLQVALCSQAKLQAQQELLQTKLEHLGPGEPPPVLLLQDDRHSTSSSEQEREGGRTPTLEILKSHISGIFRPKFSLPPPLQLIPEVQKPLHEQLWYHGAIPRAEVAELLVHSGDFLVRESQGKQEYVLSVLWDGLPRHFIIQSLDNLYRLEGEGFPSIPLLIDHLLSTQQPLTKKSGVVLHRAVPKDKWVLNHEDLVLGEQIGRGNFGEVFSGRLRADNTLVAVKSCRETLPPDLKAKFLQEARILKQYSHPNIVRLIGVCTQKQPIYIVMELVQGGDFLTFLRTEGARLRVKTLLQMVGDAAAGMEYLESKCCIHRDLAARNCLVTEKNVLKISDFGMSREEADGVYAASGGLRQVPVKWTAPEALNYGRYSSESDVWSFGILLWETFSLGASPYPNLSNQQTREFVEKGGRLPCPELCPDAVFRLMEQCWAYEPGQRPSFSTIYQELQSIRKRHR

MERTK = MERTK (UniProt Q12866); test: as above
MERTK, sequence (Q12866 whole entry, looked up): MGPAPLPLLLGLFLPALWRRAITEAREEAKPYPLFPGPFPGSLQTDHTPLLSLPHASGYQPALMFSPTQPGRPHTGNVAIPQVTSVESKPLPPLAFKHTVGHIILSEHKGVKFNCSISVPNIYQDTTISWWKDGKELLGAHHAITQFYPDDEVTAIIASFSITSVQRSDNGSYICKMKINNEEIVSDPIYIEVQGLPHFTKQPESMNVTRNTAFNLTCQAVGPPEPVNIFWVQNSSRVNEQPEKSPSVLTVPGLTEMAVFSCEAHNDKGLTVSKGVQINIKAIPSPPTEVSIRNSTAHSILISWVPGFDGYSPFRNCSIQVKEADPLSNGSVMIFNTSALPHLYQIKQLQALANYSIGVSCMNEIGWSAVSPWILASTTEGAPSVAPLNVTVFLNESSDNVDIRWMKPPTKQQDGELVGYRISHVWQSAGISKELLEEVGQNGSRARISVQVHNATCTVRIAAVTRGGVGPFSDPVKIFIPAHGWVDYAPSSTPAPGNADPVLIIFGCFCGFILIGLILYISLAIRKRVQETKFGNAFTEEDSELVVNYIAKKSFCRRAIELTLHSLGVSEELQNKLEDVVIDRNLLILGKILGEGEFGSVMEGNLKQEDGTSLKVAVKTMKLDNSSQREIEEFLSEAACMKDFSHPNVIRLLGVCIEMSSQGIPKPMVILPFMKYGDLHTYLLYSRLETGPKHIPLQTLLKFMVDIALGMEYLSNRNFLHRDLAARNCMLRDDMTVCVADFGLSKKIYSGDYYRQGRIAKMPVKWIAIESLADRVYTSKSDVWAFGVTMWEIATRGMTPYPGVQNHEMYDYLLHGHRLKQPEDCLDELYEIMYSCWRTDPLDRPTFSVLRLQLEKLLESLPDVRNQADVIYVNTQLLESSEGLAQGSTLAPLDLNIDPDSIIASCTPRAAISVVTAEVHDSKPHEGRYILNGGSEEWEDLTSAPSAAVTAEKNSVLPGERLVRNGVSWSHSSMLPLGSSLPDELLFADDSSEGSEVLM

FGFR3 = FGFR3 (UniProt P22607); test: as above
FGFR3, sequence (P22607 whole entry, looked up): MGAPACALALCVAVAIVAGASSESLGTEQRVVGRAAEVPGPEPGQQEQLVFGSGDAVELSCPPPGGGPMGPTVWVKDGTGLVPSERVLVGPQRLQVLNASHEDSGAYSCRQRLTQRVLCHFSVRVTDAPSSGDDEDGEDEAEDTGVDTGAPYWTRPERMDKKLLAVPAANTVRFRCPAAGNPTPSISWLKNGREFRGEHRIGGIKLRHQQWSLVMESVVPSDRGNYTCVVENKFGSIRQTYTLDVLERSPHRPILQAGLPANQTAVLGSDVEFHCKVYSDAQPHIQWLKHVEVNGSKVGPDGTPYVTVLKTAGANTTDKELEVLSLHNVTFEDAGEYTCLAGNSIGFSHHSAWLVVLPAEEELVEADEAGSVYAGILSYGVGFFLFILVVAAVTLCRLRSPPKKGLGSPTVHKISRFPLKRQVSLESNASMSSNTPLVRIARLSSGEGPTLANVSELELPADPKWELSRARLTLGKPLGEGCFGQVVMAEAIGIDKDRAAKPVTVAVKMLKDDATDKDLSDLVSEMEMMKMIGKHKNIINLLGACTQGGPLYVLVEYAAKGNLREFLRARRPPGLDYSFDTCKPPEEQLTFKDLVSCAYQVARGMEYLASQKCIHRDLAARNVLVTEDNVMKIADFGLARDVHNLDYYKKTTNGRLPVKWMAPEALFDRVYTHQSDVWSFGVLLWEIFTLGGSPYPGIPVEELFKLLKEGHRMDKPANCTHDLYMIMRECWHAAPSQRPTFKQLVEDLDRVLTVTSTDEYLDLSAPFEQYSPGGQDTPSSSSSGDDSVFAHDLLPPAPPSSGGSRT

Fer (mouse) = test: as above
c-Abl (mouse) = test: as above
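Throughout, for SH2 binding enrichment of the phosphorylated peptide, bacterial display: peptide library displayed on the E. coli surface as eCPX fusions, selected cells deep-sequenced, score is each peptide's frequency after selection divided by its frequency in the input.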
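Throughout, for phosphorylation enrichment, bacterial display: 11-residue human phosphosite peptides and single-mutation variants displayed on the E. coli surface, counted by deep sequencing, each peptide's frequency after selection divided by its frequency in the unselected input library; frequency after pTyr selection over input frequency; kinase dosed for 20-30% of maximal phosphorylation in three min.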

Grb2 SH2, sequence (P62993 whole entry, looked up): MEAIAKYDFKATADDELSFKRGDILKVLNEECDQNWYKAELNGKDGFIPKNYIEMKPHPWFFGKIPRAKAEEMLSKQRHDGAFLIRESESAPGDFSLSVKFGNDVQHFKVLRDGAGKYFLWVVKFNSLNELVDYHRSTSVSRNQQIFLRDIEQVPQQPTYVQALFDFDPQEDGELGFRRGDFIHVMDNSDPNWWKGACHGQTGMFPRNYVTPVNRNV
EPHB1, sequence (P54762 whole entry, looked up): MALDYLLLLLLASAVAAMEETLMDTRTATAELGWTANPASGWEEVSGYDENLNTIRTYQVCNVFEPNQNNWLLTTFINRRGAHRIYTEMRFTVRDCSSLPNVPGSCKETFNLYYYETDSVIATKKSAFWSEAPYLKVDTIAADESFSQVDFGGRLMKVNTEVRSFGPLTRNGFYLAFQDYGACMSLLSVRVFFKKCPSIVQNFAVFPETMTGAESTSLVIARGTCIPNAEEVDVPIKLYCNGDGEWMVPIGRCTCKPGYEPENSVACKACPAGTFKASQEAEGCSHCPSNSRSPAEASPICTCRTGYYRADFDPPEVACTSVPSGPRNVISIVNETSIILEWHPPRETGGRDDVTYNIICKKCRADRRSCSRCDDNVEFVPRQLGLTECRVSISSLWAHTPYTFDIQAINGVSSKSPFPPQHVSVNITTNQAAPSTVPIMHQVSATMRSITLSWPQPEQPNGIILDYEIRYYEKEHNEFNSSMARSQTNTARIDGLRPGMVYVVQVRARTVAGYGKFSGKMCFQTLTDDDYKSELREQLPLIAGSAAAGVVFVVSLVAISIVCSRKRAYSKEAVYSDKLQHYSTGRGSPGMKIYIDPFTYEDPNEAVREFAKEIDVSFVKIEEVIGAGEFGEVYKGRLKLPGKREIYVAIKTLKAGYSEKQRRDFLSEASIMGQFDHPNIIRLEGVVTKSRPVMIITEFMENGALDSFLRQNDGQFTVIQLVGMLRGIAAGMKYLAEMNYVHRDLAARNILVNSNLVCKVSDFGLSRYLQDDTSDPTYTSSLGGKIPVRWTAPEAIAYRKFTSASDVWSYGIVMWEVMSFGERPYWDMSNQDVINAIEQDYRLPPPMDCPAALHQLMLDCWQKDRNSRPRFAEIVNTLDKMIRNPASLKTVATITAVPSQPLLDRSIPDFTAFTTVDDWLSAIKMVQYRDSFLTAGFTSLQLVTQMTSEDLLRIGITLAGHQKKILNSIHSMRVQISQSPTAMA

Sequence | SH2 binding enrichment (c-Src SH2) | SH2 binding enrichment (Grb2 SH2) | SH2 binding enrichment (SHP2-C SH2) | phosphorylation enrichment (EPHB1) | phosphorylation enrichment (Fyn) | phosphorylation enrichment (FGFR1) | phosphorylation enrichment (AncSZ) | phosphorylation enrichment (c-Src) | phosphorylation enrichment (Jak2) | phosphorylation enrichment (Hck) | phosphorylation enrichment (EPHB2) | phosphorylation enrichment (Fes) | phosphorylation enrichment (MERTK) | phosphorylation enrichment (FGFR3) | phosphorylation enrichment (Fer (mouse)) | phosphorylation enrichment (c-Abl (mouse))
VYLGAYDHFLP [SLC22A5_Y486_R488H] | 0.757 | 0.755 | 4.29 | 4.38 | 6.16 | 1.6 | 2.28 | 6.2 | 1.39 | 5.47 | 7.25 | 1.25 | 9.45 | 1.62 | 7.24 | 2.69
ACQGKYTPSSQ [ALDOA_Y343_G347S] | 0.553 | 0.928 | 0.887 | 0.346 | 0.433 | 0.362 | 0.542 | 0.449 | 0.421 | 0.417 | 0.389 | 0.579 | 0.404 | 0.466 | 0.425 | 0.392
ARGMEYLASKN [FGFR1_Y613_K618N] | 0.524 | 1.03 | 0.557 | 0.285 | 0.327 | 0.407 | 0.452 | 0.394 | 0.463 | 0.337 | 0.32 | 0.511 | 0.355 | 0.447 | 0.271 | 0.385
RLVVVYPWTQR [HBB_Y36_L33V] | 0.954 | 1.45 | 1.5 | 0.575 | 0.771 | 0.491 | 1.07 | 0.709 | 1.2 | 0.646 | 1.23 | 1.17 | 0.727 | 1.1 | 0.652 | 0.846
VLTSKYLGGGG [HBA1_Y141_R142L] | 0.456 | 0.824 | 0.695 | 0.292 | 0.275 | 0.448 | 0.382 | 0.334 | 0.444 | 0.32 | 0.326 | 0.461 | 0.347 | 0.308 | 0.264 | 0.375
PVQAAYQKVVP [HBB_Y131_A136P] | 1 | 0.881 | 0.751 | 0.787 | 0.878 | 0.727 | 0.763 | 0.626 | 0.88 | 0.803 | 0.631 | 0.64 | 0.619 | 0.775 | 0.827 | 0.561
IGNGFYFHVFS [MYBPC3_Y1136_R1138H_YF] | 0.484 | 0.982 | 0.7 | 0.639 | 0.4 | 0.472 | 1.06 | 0.381 | 1.28 | 0.423 | 0.643 | 1.31 | 0.419 | 0.757 | 0.449 | 1.04
VNLVLYLSIAK [FBXO15_Y496] | 0.426 | 0.829 | 0.388 | 0.438 | 0.462 | 0.581 | 1.13 | 0.512 | 1.28 | 0.527 | 0.628 | 1.73 | 0.572 | 0.867 | 0.443 | 1.25
SRKSEYLLPVA [MYLK_Y611] | 0.418 | 0.789 | 0.786 | 0.504 | 0.619 | 0.392 | 0.748 | 0.526 | 0.509 | 0.465 | 0.512 | 0.602 | 0.413 | 0.569 | 0.44 | 0.93
IEEGTYGVAFR [CDK11B_Y449_V452A_YF] | 0.374 | 0.612 | 0.51 | 0.888 | 7.47 | 0.465 | 1.32 | 5.45 | 0.859 | 6.06 | 2.24 | 1.11 | 1.6 | 0.915 | 4.45 | 0.982
LRFDSYWSFCN [SLC20A2_Y433_S434W_YF] | 0.726 | 1.01 | 0.945 | 1.04 | 2.12 | 1.64 | 1.25 | 2.72 | 1.49 | 2.1 | 0.774 | 1.33 | 0.572 | 1.4 | 0.506 | 0.781
FGMSSYITRED [FNDC3B_Y180_T179S_YF] | 0.501 | 0.715 | 0.937 | 0.594 | 0.59 | 0.556 | 0.84 | 0.442 | 0.559 | 0.536 | 0.653 | 0.891 | 0.527 | 0.693 | 0.544 | 0.579
RLQEGYDHSFF [ESD_Y258_YF] | 1.01 | 1.1 | 0.622 | 0.457 | 0.427 | 0.52 | 1.12 | 0.824 | 0.85 | 0.508 | 0.364 | 0.794 | 0.538 | 0.57 | 0.422 | 0.728
ETMNKYHLSGR [MYEF2_Y164_D165H] | 0.426 | 0.667 | 0.627 | 0.332 | 0.343 | 0.432 | 0.539 | 0.375 | 0.422 | 0.467 | 0.355 | 0.53 | 0.385 | 0.367 | 0.357 | 0.398
ESDYPYSSSYE [SRPK2_Y427_T426P] | 0.829 | 0.832 | 0.395 | 0.589 | 0.593 | 0.668 | 1.19 | 0.784 | 0.71 | 0.581 | 0.649 | 1.18 | 0.513 | 0.789 | 0.499 | 0.481
LLIVEYAKFGS [RET_Y806_YF] | 1.05 | 1.14 | 1.29 | 5.93 | 1.4 | 0.909 | 1.79 | 1.13 | 1.6 | 1.25 | 1.72 | 1.83 | 0.585 | 1.36 | 1.16 | 1.67
CTTIHYNYMCS [TP53_Y234_N239S] | 4.92 | 1.43 | 2.75 | 0.992 | 0.44 | 0.647 | 0.848 | 0.538 | 0.636 | 0.531 | 0.62 | 0.835 | 0.545 | 0.639 | 0.713 | 0.715

Sequence | SH2 binding enrichment (c-Src SH2) | SH2 binding enrichment (Grb2 SH2) | SH2 binding enrichment (SHP2-C SH2) | phosphorylation enrichment (EPHB1) | phosphorylation enrichment (Fyn) | phosphorylation enrichment (FGFR1) | phosphorylation enrichment (AncSZ) | phosphorylation enrichment (c-Src) | phosphorylation enrichment (Jak2) | phosphorylation enrichment (Hck) | phosphorylation enrichment (EPHB2) | phosphorylation enrichment (Fes) | phosphorylation enrichment (MERTK) | phosphorylation enrichment (FGFR3) | phosphorylation enrichment (Fer (mouse)) | phosphorylation enrichment (c-Abl (mouse))
LAIEGYVVVCK [RHO_Y136_R135G] | 0.525 | 0.818 | 0.634 | 0.75 | 0.604 | 0.707 | 1.5 | 0.526 | 1.09 | 0.747 | 0.826 | 1.41 | 0.528 | 1.02 | 0.459 | 0.991
FDDIAYIRKAL [PIK3CA_Y1021_T1025A] | 0.39 | 0.787 | 0.607 | 0.361 | 0.427 | 0.358 | 0.708 | 0.436 | 0.52 | 0.495 | 0.448 | 0.685 | 0.454 | 0.461 | 0.387 | 0.5
ADCRFYAFPQM [GAMT_Y223_YF] | 0.526 | 0.778 | 0.653 | 3.25 | 0.76 | 0.719 | 2.44 | 1.35 | 1.45 | 0.92 | 3.79 | 1.57 | 7.18 | 1.03 | 6.04 | 2.39
EKQLLYLENKT [FRK_Y132_S133L] | 0.467 | 0.881 | 0.631 | 0.567 | 0.467 | 0.398 | 0.712 | 0.356 | 0.672 | 0.459 | 0.44 | 0.985 | 0.337 | 0.589 | 0.405 | 0.41
ANQDDHISFRH [IMP4_Y226_Y226H] | 0.502 | 1.02 | 0.512 | 0.518 | 0.419 | 0.456 | 0.852 | 0.611 | 0.833 | 0.501 | 0.497 | 0.903 | 0.453 | 0.535 | 0.416 | 0.912
FDDIAYIRKTL [PIK3CA_Y1021] | 0.483 | 0.683 | 0.565 | 0.469 | 0.514 | 0.456 | 0.75 | 0.449 | 0.835 | 0.469 | 0.481 | 0.878 | 0.474 | 0.496 | 0.411 | 0.62
WASGIYYVPKG [APBB1IP_Y340_R335W] | 0.883 | 1.21 | 0.959 | 15.3 | 10 | 8.05 | 3.2 | 6.92 | 8.67 | 10.1 | 17 | 1.05 | 11.5 | 7.15 | 5.91 | 31.1
VKGGAYFPVTV [MCCC2_Y145_YF] | 0.601 | 0.699 | 0.642 | 0.372 | 0.396 | 0.713 | 0.703 | 0.386 | 0.807 | 0.431 | 0.444 | 0.601 | 0.692 | 0.602 | 0.419 | 0.522
ADRAAYLQNLN [MYH1_Y389_K386R] | 0.403 | 0.719 | 0.552 | 0.563 | 0.336 | 0.629 | 0.604 | 0.42 | 0.604 | 0.334 | 0.338 | 0.699 | 0.362 | 0.441 | 0.364 | 0.679
CPEASYNRSPI [PTAR1_Y42_R41S] | 0.471 | 0.763 | 0.588 | 0.602 | 0.489 | 0.58 | 0.82 | 0.528 | 0.882 | 0.521 | 0.565 | 1.09 | 0.585 | 0.701 | 0.825 | 0.781
KRRGPYETSPS [PLPP7_Y172] | 0.493 | 0.549 | 0.377 | 0.345 | 0.491 | 0.414 | 0.599 | 0.614 | 0.539 | 0.399 | 0.403 | 0.495 | 0.405 | 0.397 | 0.446 | 0.526
RSYSPYDYQPC [TNS1_Y796] | 1.26 | 1.2 | 0.638 | 1.81 | 3.66 | 1.27 | 1.52 | 3.15 | 0.789 | 1.29 | 2.31 | 0.912 | 3.28 | 1.06 | 0.894 | 0.668
NFRTTYINANE [KCNH2_Y475_V476I] | 0.745 | 5.07 | 1.34 | 0.566 | 0.412 | 0.528 | 0.733 | 0.584 | 0.843 | 0.462 | 0.435 | 0.819 | 0.476 | 0.506 | 0.383 | 0.711
FMMMRYSQNVR [SDAD1_Y656] | 1.03 | 1.52 | 1.43 | 0.614 | 0.424 | 0.432 | 1.11 | 0.365 | 0.939 | 0.475 | 0.626 | 1.04 | 0.493 | 0.782 | 0.58 | 0.701
KNCFKYFMSDD [ATRX_Y203_YF] | 0.546 | 0.803 | 0.529 | 0.639 | 0.453 | 0.604 | 1.37 | 0.646 | 1.27 | 0.556 | 0.714 | 1.45 | 0.556 | 0.84 | 0.589 | 1.02
CQGSLYPSNHD [LRIG1_Y996] | 0.518 | 0.781 | 0.568 | 0.582 | 0.535 | 0.531 | 0.879 | 0.571 | 1.03 | 0.611 | 0.531 | 0.979 | 0.391 | 0.551 | 0.501 | 0.567

From the supplement of paper PMC10065799, “High-throughput profiling of sequence recognition by tyrosine kinases and SH2 domains using bacterial peptide display” (eLife, 2023)
